In general, Kd refers to the concentration at which binding is half-saturated.

The record followed here is PMC4076583 (The Journal of Experimental Medicine, 2014).

In experiment [1] the target is recombinant mouse Galectin-9 (mouse, UniProt O08573 1-353). The experiment in a line: SPR.
The target in experiment [2] is recombinant human Galectin-9 (human, UniProt O00182 1-355). Kind of experiment: SPR. For orientation: Surface plasmon resonance follows binding to a sensor surface in real time, without labels.
Chain of recombinant human Galectin-9 (O00182 whole entry): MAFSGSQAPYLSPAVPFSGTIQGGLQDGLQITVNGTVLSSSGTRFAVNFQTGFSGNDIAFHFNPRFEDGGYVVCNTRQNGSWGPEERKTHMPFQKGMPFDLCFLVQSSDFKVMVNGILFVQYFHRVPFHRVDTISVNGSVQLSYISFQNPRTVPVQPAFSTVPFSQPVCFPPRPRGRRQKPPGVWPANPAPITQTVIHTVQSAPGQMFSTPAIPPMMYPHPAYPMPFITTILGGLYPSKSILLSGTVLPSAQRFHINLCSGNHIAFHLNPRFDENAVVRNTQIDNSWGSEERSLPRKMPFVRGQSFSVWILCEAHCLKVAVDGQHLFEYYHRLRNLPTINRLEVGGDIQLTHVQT

Chain of recombinant mouse Galectin-9 (O08573 whole entry): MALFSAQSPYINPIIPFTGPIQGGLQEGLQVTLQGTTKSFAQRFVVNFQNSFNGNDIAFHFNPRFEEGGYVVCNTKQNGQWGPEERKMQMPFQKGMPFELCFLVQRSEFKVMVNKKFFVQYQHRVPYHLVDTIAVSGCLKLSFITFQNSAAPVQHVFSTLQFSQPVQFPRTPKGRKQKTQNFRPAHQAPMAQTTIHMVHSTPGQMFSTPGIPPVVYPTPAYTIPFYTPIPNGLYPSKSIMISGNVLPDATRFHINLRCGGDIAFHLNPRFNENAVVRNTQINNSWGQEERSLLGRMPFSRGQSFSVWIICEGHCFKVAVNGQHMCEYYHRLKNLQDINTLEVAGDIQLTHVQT

B1: mouse 4-1BB.Fc, full-length extracellular 4-1BB (CRD1–4, amino acids 24–187) fused to human IgG1 Fc (Fc fusion, UniProt P20334 24-187, looked up)
chain: VQNSCDNCQPGTFCRKYNPVCKSCPPSTFSSIGGQPNCNICRVCAGYFRFKKFCSSTHNAECECIEGFHCLGPQCTRCEKDCRPGQELTKQGCKTCSLGTFNDQNGTGVCRPWTNCSLDGRSVLKTGTTEKDVVCGPPVVSFSPSTTISVTPEGGPGGHSLQVL
Regarding B1, in experiment [1], the Kd was approximately 11 nM.

B2: mouse 4-1BB.Fc CRD4 mutant (amino acids 118–187) (Fc fusion, UniProt P20334 118-187, looked up)
chain: TCSLGTFNDQNGTGVCRPWTNCSLDGRSVLKTGTTEKDVVCGPPVVSFSPSTTISVTPEGGPGGHSLQVL
Consider B2, for which the Kd in experiment [1] was approximately 18 nM.

B3: human 4-1BB.Fc CRD4 mutant (amino acids 119–186) (Fc fusion, UniProt Q07011 119-186, looked up)
chain: DCCFGTFNDQKRGICRPWTNCSLDGKSVLVNGTKERDVVCGPSPADLSPGASSVTPPAPAREPGHSPQ
Turning to B3, the equilibrium dissociation constant (Kd) in experiment [2] was approximately 35 nM.
